Results on seven molecules are retold here after paper PMC13185157 (ACS Synthetic Biology, 2026).

The labels stand for the following.
B1: α-GFP Nb displayed as N-terminal fusion to HA-tagged Aga1ΔN181 (VHH)
VHH: QVQLVESGGALVQPGGSLRLSCAASGFPVNRYSMRWYRQAPGKEREWVAGMSSAGDRSSYEDSVKGRFTISRDDARNTVYLQMNSLKPEDTAVYYCNVNVGFEYWGQGTQVTVSS
notes: anti-GFP nanobody; Plasmid details in File S1; also called anti-GFP Nanobody; not shown: HA (of the anchor part), internal (between nanobody and anchor), kept; Aga1ΔN181 anchor (Aga1p YNR044W amino acids 182–544), C-terminal, kept
B2: α-GFP Nb displayed as N-terminal fusion to 2xFLAG-tagged Aga1ΔN181 (VHH)
VHH: QVQLVESGGALVQPGGSLRLSCAASGFPVNRYSMRWYRQAPGKEREWVAGMSSAGDRSSYEDSVKGRFTISRDDARNTVYLQMNSLKPEDTAVYYCNVNVGFEYWGQGTQVTVSS
notes: anti-GFP nanobody, as in m2; also called anti-GFP Nanobody; not shown: 2xFLAG, internal (between nanobody and anchor), kept; Aga1ΔN181 anchor (Aga1p YNR044W amino acids 182–544), C-terminal, kept
B3: α-GFP Nb displayed as C-terminal fusion to 2xFLAG-tagged Aga2 (VHH)
VHH: QVQLVESGGALVQPGGSLRLSCAASGFPVNRYSMRWYRQAPGKEREWVAGMSSAGDRSSYEDSVKGRFTISRDDARNTVYLQMNSLKPEDTAVYYCNVNVGFEYWGQGTQVTVSS
notes: anti-GFP nanobody, as in m2; Held on the cell by coexpressed Aga1; also called anti-GFP Nanobody; not shown: 2xFLAG, internal (after amino acid 18 of Aga2p, after the signal peptide), kept; Aga2p anchor (YGL032C), N-terminal, kept
B4: α-GFP Nb displayed as C-terminal fusion to HA-tagged Aga2 (VHH)
VHH: QVQLVESGGALVQPGGSLRLSCAASGFPVNRYSMRWYRQAPGKEREWVAGMSSAGDRSSYEDSVKGRFTISRDDARNTVYLQMNSLKPEDTAVYYCNVNVGFEYWGQGTQVTVSS
notes: anti-GFP nanobody, as in m2; Held on the cell by coexpressed Aga1; also called anti-GFP Nanobody; not shown: HA, internal (after amino acid 18 of Aga2p, after the signal peptide), kept; Aga2p anchor (YGL032C), N-terminal, kept
B5: α-GFP Nb displayed as N-terminal fusion to MYC-tagged Aga1ΔN181 (VHH)
VHH: QVQLVESGGALVQPGGSLRLSCAASGFPVNRYSMRWYRQAPGKEREWVAGMSSAGDRSSYEDSVKGRFTISRDDARNTVYLQMNSLKPEDTAVYYCNVNVGFEYWGQGTQVTVSS
notes: anti-GFP nanobody, as in m2; also called anti-GFP Nanobody; not shown: MYC, internal (between nanobody and anchor), kept; Aga1ΔN181 anchor (Aga1p YNR044W amino acids 182–544), C-terminal, kept
B6: α-GFP Nb displayed as C-terminal fusion to untagged Aga2 (VHH)
VHH: QVQLVESGGALVQPGGSLRLSCAASGFPVNRYSMRWYRQAPGKEREWVAGMSSAGDRSSYEDSVKGRFTISRDDARNTVYLQMNSLKPEDTAVYYCNVNVGFEYWGQGTQVTVSS
notes: anti-GFP nanobody, as in m2; also called anti-GFP Nanobody; not shown: Aga2p anchor (YGL032C), N-terminal, kept
B7: α-GFP Nb displayed as C-terminal fusion to MYC-tagged Aga2 (VHH)
VHH: QVQLVESGGALVQPGGSLRLSCAASGFPVNRYSMRWYRQAPGKEREWVAGMSSAGDRSSYEDSVKGRFTISRDDARNTVYLQMNSLKPEDTAVYYCNVNVGFEYWGQGTQVTVSS
notes: as for B6

The target of the experiment is T1, GFP (Aequorea victoria GFP, engineered …).
T1 construct: green fluorescent protein expressed from pYTK001; also called green fluorescent protein; source: E. coli DH5α, constitutive expression from pYTK001, in lysate
T1 sequence (P42212 other isoform, or with tags, fused parts or gaps): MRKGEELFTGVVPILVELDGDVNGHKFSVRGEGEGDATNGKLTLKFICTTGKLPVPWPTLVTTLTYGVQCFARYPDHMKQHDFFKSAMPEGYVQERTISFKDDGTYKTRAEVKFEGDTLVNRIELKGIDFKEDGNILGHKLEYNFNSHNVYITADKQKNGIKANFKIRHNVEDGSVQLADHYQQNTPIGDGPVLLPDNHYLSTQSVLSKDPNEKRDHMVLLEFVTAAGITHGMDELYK
Briefly: flow cytometry on cells; about 1 x 10^6 yeast cells displaying the α-GFP Nb in 20 mM HEPES pH 7.5, 150 mM NaCl, 0.1% BSA, 5 mM maltose; GFP from a bacterial cell lysate (20–30 μL); 15 min at 4 °C; GFP fluorescence, percent of positive cells. The following applies: partners not purified. Background: Flow cytometry measures light scatter and fluorescence of single cells or particles in a stream.
As for B1, the “percent of cells labelled with GFP” value is above 80%.
Next, B2: above 80%; B3: above 60%; B4: above 60%.
In the case of B5 it was above 80%; in that of B6, above 60%.
In the case of B7 it was above 60%.
